Tests used:
GFP-OhyA = target: T1, GFP-OhyA (Staphylococcus aureus, UniProt Q2G1P3, M1A); assay: biochemical
T1 construct: gene SAOUHSC_00061

[1] = target: GFP-OhyA (green fluorescent protein-oleate hydratase chimeric protein) (Staphylococcus aureus); assay: SEC-MALS; Superose 6 Increase 10/300 GL; 20 mM Tris, 200 mM NaCl, pH 7.6; 100 uL of GFP-OhyA (2 mg/mL) injected at 0.5 mL/min, 25 °C

Row | Compound | Kd (GFP-OhyA) [µM] | percent dimer [1] [%] | stoichiometry N [1]
1 | CCCCCCCC/C=C\CCCCCCCC(=O)OC[C@H](COP(=O)(O)OCC(O)CO)OC(=O)CCCCCCC/C=C\CCCCCCCC (stereo partly drawn) [DOPG] | 0.0799 |  | 
2 | GFP-OhyA (green fluorescent protein-oleate hydratase chimeric protein) (enzyme) |  | 80.6 | 2

— PMC11751051 (Frontiers in Molecular Biosciences, 2025)
